Assay results taken from article PMC4456287 (Structure (London, England : 1993), 2015).
Values joined by “and” are separate entries in the source; they are usually repeats but may differ in a detail not shown here. Equal entries are not always repeated.

Assays:
Assay in all cases: ITC
[1] = biological target: Alanine mutations of MRG15 L168 and W172 (human)
human MRG15 MRG W172A = human MRG15 MRG W172A (human, UniProt Q9UBU8-2 155-323, alanine mutation of W172)
human MRG15 MRG L168A = human MRG15 MRG L168A (human, UniProt Q9UBU8-2 155-323, alanine mutation of L168)
human MRG15 MRG L168A, sequence (Q9UBU8 194-362 L207A): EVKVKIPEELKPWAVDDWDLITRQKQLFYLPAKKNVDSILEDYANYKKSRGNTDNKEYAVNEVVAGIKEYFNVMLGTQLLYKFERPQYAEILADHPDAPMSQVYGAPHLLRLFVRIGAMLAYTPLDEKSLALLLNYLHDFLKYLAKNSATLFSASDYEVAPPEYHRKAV

[2] = biological target: human MRG15 MRG domain (residues 155-323) (human, UniProt Q9UBU8-2 155-323)
human MRG15 MRG domain (residues 155-323), sequence (Q9UBU8 194-362): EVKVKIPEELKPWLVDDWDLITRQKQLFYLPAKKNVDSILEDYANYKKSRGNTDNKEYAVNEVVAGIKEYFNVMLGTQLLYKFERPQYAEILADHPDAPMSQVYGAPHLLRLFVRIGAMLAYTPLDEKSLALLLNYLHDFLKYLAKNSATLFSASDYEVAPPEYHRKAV

human MRG15 MRG L287A = human MRG15 MRG L287A (human, UniProt Q9UBU8-2 155-323, alanine mutation of L287)
human MRG15 MRG L287A, sequence (Q9UBU8 194-362 L326A): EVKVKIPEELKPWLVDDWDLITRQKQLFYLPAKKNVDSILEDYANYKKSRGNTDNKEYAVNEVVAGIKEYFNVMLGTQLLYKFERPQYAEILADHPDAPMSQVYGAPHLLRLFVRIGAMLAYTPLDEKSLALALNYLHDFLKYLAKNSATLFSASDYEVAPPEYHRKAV

human MRG15 MRG W172A, sequence (Q9UBU8 194-362 W211A): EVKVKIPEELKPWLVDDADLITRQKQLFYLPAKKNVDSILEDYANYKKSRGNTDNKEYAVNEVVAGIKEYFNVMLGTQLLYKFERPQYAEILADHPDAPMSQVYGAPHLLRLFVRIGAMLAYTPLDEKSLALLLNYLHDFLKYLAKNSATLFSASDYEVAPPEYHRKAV

Molecule: human MRGBP MRG-binding domain (residues 69-119) (from UniProt Q9NV56 69-119) (domain or fragment)
- fold reduction in binding affinity [1]: 7 fold and 8 fold

B1: human MRGBP MRG-binding domain (residues 69-119) (domain or fragment, UniProt Q9NV56 69-119, looked up)
chain: GRQVPSKVIWDHLSTMYDMQALHESEILPFPNPERNFVLPEEIIQEVREGK
- binding result (human MRG15 MRG W172A): binds
- binding result (human MRG15 MRG L168A): binds
- Kd [2]: ~60 nM
- fold effect on binding (human MRG15 MRG L287A): > 2 fold

B2: human MRGBP MBD M84A (domain or fragment, UniProt Q9NV56 69-119, looked up)
chain: GRQVPSKVIWDHLSTAYDMQALHESEILPFPNPERNFVLPEEIIQEVREGK
- fold decrease in binding affinity relative to wild-type [2]: ~3 fold

B3: human MRGBP MBD I112A (domain or fragment, UniProt Q9NV56 69-119, looked up)
chain: GRQVPSKVIWDHLSTMYDMQALHESEILPFPNPERNFVLPEEIAQEVREGK
- fold decrease in binding affinity relative to wild-type [2]: ~13 fold

B4: human PALB2 MBD (residues 579-629) (domain or fragment, UniProt Q86YC2 579-629, looked up)
chain: AYLSLDDDAFTAPFHRDGMLSLKQLLSFLSITDFQLPDEDFGPLKLEKVKS
- Kd [2]: ~20 nM
